Experimental data: patent publication US20250215420, “MULTIPLEXABLE CRISPR EDITORS UTILIZING INTRACELLULAR EVOLVED APTAMERS FOR ENDOGENOUS EFFECTOR RECRUITMENT” (The Trustees of Boston College, published 2025)

How the values were obtained:
[1] = test system: MS2 coat protein (MCP)-SoxS R93A fusion (bacteriophage MS2); assay: ELONA; conditions: protein coated at 10 ug/mL; aptamer 0.25-2500 nM
[2] = test system: MCP T45L-SoxS R93A T45L (bacteriophage MS2); assay: cell_activity; conditions: E. coli CRISPRa; some function retained
[3] = target: T1, MS2 coat protein (MCP)-SoxS R93A fusion, wild-type MCP (bacteriophage MS2); assay: cell_activity; CRISPRa in E. coli with dCas9, J1 promoter-GFP reporter; conditions: tags: fused to SoxS(R93A); MS2 hairpin in sgRNA scaffold
T1 chain: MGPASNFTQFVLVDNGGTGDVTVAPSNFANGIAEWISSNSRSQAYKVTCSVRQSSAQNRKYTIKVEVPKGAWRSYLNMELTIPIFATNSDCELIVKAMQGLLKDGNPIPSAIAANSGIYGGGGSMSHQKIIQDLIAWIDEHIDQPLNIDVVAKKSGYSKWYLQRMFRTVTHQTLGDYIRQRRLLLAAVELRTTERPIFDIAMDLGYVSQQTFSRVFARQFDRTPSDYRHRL
From the text: To test the ability of the CRISPR system to accommodate the insertion of an RNA aptamer motif into the sgRNA and allow for locus-specific effector recruitment in E. coli cells, a construct was first designed to insert a known RNA aptamer against bacteriophage MS2 coat protein (MCP) into the tetraloop region of sgRNA (FIG. 3A, SEQ ID NO. 8). Correspondingly, MCP was fused with the SoxS transcriptional activator. Three plasmids (SP, AP, and RP) were designed to introduce into the cell the sgRNA-aptamer chimera, the MCP-SoxS fusion along with dCas9 (SEQ ID NO. 10), and a synthetic reporter construct, respectively (FIG. 4). Following a design principle established by a previous study, the synthetic reporter was constructed to control the expression of enhanced green fluorescent protein (eGFP) by CRISPR co-localized with RNA polymerase through aptamer-MCP interaction (FIG. 3B). This synthetic reporter construct contained a weak promoter and multiple protospacer sequences to be targeted by sgRNA to control levels of gene activation (FIG. 5A).
The distance of the sgRNA target from the transcription start site was also tested by using this reporter. […] Low GFP levels were also observed when an off-target gRNA was used that had no binding site on the J1 synthetic promoter. […]

Molecule: MS2 aptamer
- Kd [1]: 26.3 nM

Molecule: UUAUCACCUUGGCUGCAGGCGUUUUAGAGCUAGAAAUAGCAAGUUAAAAUAAGGCUAGUCCGUUAUCAACUUGAAAAAGUGCGCACAUGAGGAUCACCCAUGUGCUUUUUU [gRNA J1.3-MS2 aptamer scaffold]
- binding signal (fold GFP decrease vs wild-type MCP) [2]: 23

B1: gRNA J1.3-MS2 aptamer scaffold (ssRNA)
RNA: UUAUCACCUUGGCUGCAGGCGUUUUAGAGCUAGAAAUAGCAAGUUAAAAUAAGGCUAGUCCGUUAUCAACUUGAAAAAGUGCGCACAUGAGGAUCACCCAUGUGCUUUUUU
- activity [3]: 56 fold GFP increase
